# Laboratory results reported in US20230002480A1.
# Assays:
# Test in all cases: cell-based or functional assay
# [1] = target: HIV-1 Env of pseudovirus BJOX009000.02.4 (clade CRF01_AE) (HIV-1)
# [2] = target: HIV-1 Env of pseudovirus C2101.c01 (clade CRF01_AE) (HIV-1)
# [3] = target: HIV-1 Env of pseudovirus 620345.c01 (clade CRF01_AE) (HIV-1)
# [4] = target: HIV-1 Env of pseudovirus T278-50 (clade CRF02_AG) (HIV-1)
# [5] = target: HIV-1 Env of pseudovirus C3347.c11 (clade CRF01_AE) (HIV-1)
# [6] = target: HIV-1 Env of pseudovirus 235-47 (clade CRF02_AG) (HIV-1)
# [7] = target: HIV-1 Env of pseudovirus X1193_c1 (clade G) (HIV-1)
# [8] = target: HIV-1 Env of pseudovirus BJOX010000.06.2 (clade CRF01_AE (T/F)) (HIV-1)
# [9] = target: HIV-1 Env of pseudovirus CNE30 (clade BC) (HIV-1)
# [10] = target: HIV-1 Env of pseudovirus ZM249M.PL1 (clade C) (HIV-1)
# [11] = target: HIV-1 Env of pseudovirus ZM109F.PB4 (clade C) (HIV-1)
# [12] = target: HIV-1 Env of pseudovirus RHPA4259.7 (clade B) (HIV-1)
# [13] = target: HIV-1 Env of pseudovirus Ce1172_H1 (clade C (T/F)) (HIV-1)
# [14] = target: HIV-1 Env of pseudovirus TRO.11 (clade B) (HIV-1)
# [15] = target: HIV-1 Env of pseudovirus Q23.17 (clade A) (HIV-1)
# [16] = target: HIV-1 Env of pseudovirus 1056_10_TA11_1826 (clade B (T/F)) (HIV-1)
# [17] = target: HIV-1 Env pseudovirus T255-34 (HIV-1)
# [18] = target: HIV-1 Env pseudovirus C1080.c03 (HIV-1)
# [19] = target: HIV-1 Env pseudovirus A07412M1.vrc12 (HIV-1)
# [20] = target: HIV-1 Env pseudovirus C2101.c01 (HIV-1)
# [21] = target: HIV-1 Env pseudovirus 928-28 (HIV-1)
# [22] = target: HIV-1 Env pseudovirus 0815.v3.c3 (HIV-1)
# [23] = target: HIV-1 Env pseudovirus 3817.v2.c59 (HIV-1)
# [24] = target: HIV-1 Env pseudovirus 3301.v1.c24 (HIV-1)
# [25] = target: HIV-1 Env pseudovirus 620345.c01 (HIV-1)
# [26] = target: HIV-1 Env pseudovirus T251-18 (HIV-1)
# [27] = target: HIV-1 Env pseudovirus P1981_C5_3 (HIV-1)
# [28] = target: HIV-1 Env pseudovirus X1193_c1 (HIV-1)
# [29] = target: HIV-1 Env pseudovirus T250-4 (HIV-1)
# [30] = target: HIV-1 Env pseudovirus X2088_c9 (HIV-1)
# [31] = target: HIV-1 Env pseudovirus 6811.v7.c18 (HIV-1)
# [32] = target: HIV-1 Env pseudovirus 6041.v3.c23 (HIV-1)
# [33] = target: HIV-1 Env pseudovirus BJOX025000.01.1 (HIV-1)
substance,measurement,setting,value
10-1074 (antibody),"IC50, titer in TZM.bl cells",[1],> 50 µg/mL
same,"IC80, titer in TZM.bl cells",[1],> 50 µg/mL
same,"IC50, titer in TZM.bl cells",[2],> 50 µg/mL
same,"IC80, titer in TZM.bl cells",[2],> 50 µg/mL
same,"IC50, titer in TZM.bl cells",[3],> 50 µg/mL
same,"IC80, titer in TZM.bl cells",[3],> 50 µg/mL
same,"IC50, titer in TZM.bl cells",[4],2.15 µg/mL
same,"IC80, titer in TZM.bl cells",[4],18.3 µg/mL
same,"IC50, titer in TZM.bl cells",[5],> 50 µg/mL
same,"IC80, titer in TZM.bl cells",[5],> 50 µg/mL
same,"IC50, titer in TZM.bl cells",[6],0.05 µg/mL
same,"IC80, titer in TZM.bl cells",[6],0.163 µg/mL
same,"IC50, titer in TZM.bl cells",[7],0.083 µg/mL
same,"IC80, titer in TZM.bl cells",[7],0.475 µg/mL
same,"IC50, titer in TZM.bl cells",[8],> 50 µg/mL
same,"IC80, titer in TZM.bl cells",[8],> 50 µg/mL
10E8 (antibody),"IC50, titer in TZM.bl cells",[1],1.57 µg/mL
same,"IC80, titer in TZM.bl cells",[1],9.95 µg/mL
same,"IC50, titer in TZM.bl cells",[2],1.92 µg/mL
same,"IC80, titer in TZM.bl cells",[2],8.26 µg/mL
same,"IC50, titer in TZM.bl cells",[3],0.455 µg/mL
same,"IC80, titer in TZM.bl cells",[3],6 µg/mL
same,"IC50, titer in TZM.bl cells",[4],0.949 µg/mL
same,"IC80, titer in TZM.bl cells",[4],7.46 µg/mL
same,"IC50, titer in TZM.bl cells",[5],0.016 µg/mL
same,"IC80, titer in TZM.bl cells",[5],0.167 µg/mL
same,"IC50, titer in TZM.bl cells",[6],0.384 µg/mL
same,"IC80, titer in TZM.bl cells",[6],2.07 µg/mL
same,"IC50, titer in TZM.bl cells",[7],0.497 µg/mL
same,"IC80, titer in TZM.bl cells",[7],4.2 µg/mL
same,"IC50, titer in TZM.bl cells",[8],0.341 µg/mL
same,"IC80, titer in TZM.bl cells",[8],5.29 µg/mL
N49P7.2 (antibody),IC50,[9],0.362 µg/mL
same,IC80,[9],1.2 µg/mL
same,MPI,[9],100
same,IC50,[10],0.073 µg/mL
same,IC80,[10],0.256 µg/mL
same,MPI,[10],100
same,IC50,[11],0.065 µg/mL
same,IC80,[11],0.321 µg/mL
same,MPI,[11],99
same,IC50,[12],0.1 µg/mL
same,IC80,[12],0.289 µg/mL
same,MPI,[12],100
same,IC50,[13],> 50 µg/mL
same,IC80,[13],> 50 µg/mL
same,MPI,[13],6
same,IC50,[14],0.113 µg/mL
same,IC80,[14],0.306 µg/mL
same,MPI,[14],100
same,IC50,[15],0.051 µg/mL
same,IC80,[15],0.2 µg/mL
same,MPI,[15],100
same,IC50,[16],0.114 µg/mL
same,IC80,[16],0.771 µg/mL
same,MPI,[16],100
N49P9 (antibody),IC50,[17],0.051 µg/mL
same,IC80,[17],0.247 µg/mL
same,MPI,[17],100
same,IC50,[18],0.119 µg/mL
same,IC80,[18],0.575 µg/mL
same,MPI,[18],100
same,IC50,[19],0.142 µg/mL
same,IC80,[19],0.636 µg/mL
same,MPI,[19],100
same,IC50,[20],0.051 µg/mL
same,IC80,[20],0.209 µg/mL
same,MPI,[20],100
same,IC50,[21],0.094 µg/mL
same,IC80,[21],0.339 µg/mL
same,MPI,[21],100
same,IC50,[22],0.02 µg/mL
same,IC80,[22],0.057 µg/mL
same,MPI,[22],100
same,IC50,[23],1.09 µg/mL
same,IC80,[23],5.86 µg/mL
same,MPI,[23],100
same,IC50,[24],0.072 µg/mL
same,MPI,[24],100
same,IC50,[25],> 50 µg/mL
same,IC80,[25],> 50 µg/mL
same,MPI,[25],9
same,IC50,[26],0.147 µg/mL
same,IC80,[26],0.517 µg/mL
same,MPI,[26],100
same,IC50,[27],0.308 µg/mL
same,IC80,[27],0.701 µg/mL
same,MPI,[27],100
same,IC50,[28],0.025 µg/mL
same,IC80,[28],0.081 µg/mL
same,MPI,[28],100
same,IC50,[29],> 50 µg/mL
same,IC80,[29],> 50 µg/mL
same,MPI,[29],25
same,IC50,[30],0.07 µg/mL
same,IC80,[30],0.252 µg/mL
same,MPI,[30],100
same,IC50,[31],0.249 µg/mL
same,IC80,[31],1.2 µg/mL
same,MPI,[31],99
same,IC50,[32],0.089 µg/mL
same,IC80,[32],0.777 µg/mL
same,MPI,[32],95
same,IC50,[33],0.055 µg/mL
same,IC80,[33],0.252 µg/mL
same,MPI,[33],100
